Numbering of substitutions follows the chain as printed. In names and notes the source's numbering stands.
Biological target: T1, human P2X1 receptor, wild type subunit (human) (UniProt P51575)
T1 sequence: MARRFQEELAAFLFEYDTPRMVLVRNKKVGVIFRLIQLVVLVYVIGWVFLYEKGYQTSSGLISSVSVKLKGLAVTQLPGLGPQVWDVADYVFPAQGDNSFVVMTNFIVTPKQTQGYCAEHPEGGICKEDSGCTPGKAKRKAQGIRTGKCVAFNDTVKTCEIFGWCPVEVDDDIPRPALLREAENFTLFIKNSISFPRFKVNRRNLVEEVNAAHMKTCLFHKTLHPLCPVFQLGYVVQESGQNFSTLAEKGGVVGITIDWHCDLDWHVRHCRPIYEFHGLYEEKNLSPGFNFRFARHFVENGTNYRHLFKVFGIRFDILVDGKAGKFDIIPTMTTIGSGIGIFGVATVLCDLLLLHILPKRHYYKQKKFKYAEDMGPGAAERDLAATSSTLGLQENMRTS

B1: human P2X1 receptor K190C-K68A double mutant subunit (receptor)
chain: T1 sequence with K68A, K190C
modifications: labelled with the cysteine reactive fluorophore MTS-TAMRA (K190C)
Q: How did the ATP (100 uM) evoked decrease in MTS-TAMRA fluorescence (voltage clamp fluorometry) in oocytes co-expressing WT and K68A-K190C subunits; neither homomer shows a fluorescence change turn out when B1 was run?
A: The ATP (100 uM) evoked decrease in MTS-TAMRA fluorescence (voltage clamp fluorometry) in oocytes co-expressing WT and K68A-K190C subunits; neither homomer shows a fluorescence change was 3%.

From PMC5018734
